From paper PMC12784962, “https://orcid.org/0000-0002-3633-7823 Baral Joydeep Department of Bioscience and Biotechnology, Indian Institute of Technology Kharagpur, West Midnapore 721302, West Bengal, India” come the findings set out here.

Series [1] concerns the target T1, mKu WT (Mycobacterium tuberculosis, UniProt P9WKD9 1-273).
T1 sequence: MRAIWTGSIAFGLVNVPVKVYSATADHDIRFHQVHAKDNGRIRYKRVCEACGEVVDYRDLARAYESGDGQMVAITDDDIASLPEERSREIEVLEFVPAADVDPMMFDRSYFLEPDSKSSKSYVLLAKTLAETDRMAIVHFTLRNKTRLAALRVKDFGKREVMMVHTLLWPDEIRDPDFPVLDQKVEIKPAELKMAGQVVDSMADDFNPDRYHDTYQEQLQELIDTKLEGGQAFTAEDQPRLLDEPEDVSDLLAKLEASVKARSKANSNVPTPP
Kind of series: FRET; 250 nM DNA, 0-305 nM mKu; saturating synapsis signal; EMSA: 25 mM Tris-Cl pH 7.5, 100 mM NaCl, 30 mM KCl, 0.1 mM EDTA, 0.05% Triton X-100, BSA, 2% glycerol, 2 mM DTT, 25 C, 30 min; FRET: 10 mM PBS pH 7.4, 25 C; cryo-EM: 4 C, 30 min. The note with it: protein: recombinant; pET16b); chain copies: 2; label: S4: 5'-Cy5, 3'-Cy3; complement (S5): 5'-Cy3, 3'-Cy5; blunt.

Series [2] addresses T1, mKu WT. The experiment in a line: cryo-EM; 5 uM mKu dimer and 5 uM DNA; supercomplex; EMSA: 25 mM Tris-Cl pH 7.5, 100 mM NaCl, 30 mM KCl, 0.1 mM EDTA, 0.05% Triton X-100, BSA, 2% glycerol, 2 mM DTT, 25 C, 30 min; FRET: 10 mM PBS pH 7.4, 25 C; cryo-EM: 4 C, 30 min. The note with it: protein: recombinant; pET16b); chain copies: 2; hairpin at one end, other end blunt. On the technique in general: Mobility shift assays separate free from complexed probe on a gel.

B1: 50-bp Cy3/Cy5 FRET dsDNA (dsDNA)
DNA 1: CCACACTGTCGCCGCCGACGTCTGTGATATGGCGTTGTTGCGCCGCCGAC
DNA 2: GTCGGCGGCGCAACAACGCCATATCACAGACGTCGGCGGCGACAGTGTGG
For B1, the binding result in the series with mKu WT [1] is recorded as “binds”.

B2: shDNA (21-mer/34-mer hairpin) (structured_DNA)
DNA 1: GTTTTTAGTTTATTGGGCGCG
DNA 2: CGCGCCCAGCTTTCCCAGCTAATAAACTAAAAAC
Turning to B2, the binding result in the series with mKu WT [2] was “binds”.
